Experimental data reported in US20090042782A1, “Diagnostic and therapeutic strategies for conditions associated with the FLJ13639 gene” (priority 2005, published 2009).

Key:
Type in all cases: cell-based
[1] = test system: HL60/VCR (Vincristin resistant) cells; assay: MTT viability assay; settings: 48 h
Description: Viability assays by conventional MTT assay protocol (Promega) were performed at 48 h after the beginning of the experiment.

HL60 cells = assay: JC-1 mitochondrial membrane potential staining, fluorescence microscopy
Source text: FIG. 14A is a graphical representation of green/red fluorescence intensity ratio data measured for treatment of HL60/VDR cells (a vinctrisin resistant cell line) as indicated for the x-axis. * indicates statistical significance.
Disruption of the mitochondrial membrane potential (Δψm) is an early event associated with apoptosis and may be one of several factors responsible for cytochrome c release (17, 18). Using JC-1 mitochondrial potential sensor (Molecular Probes, Inc) staining and fluorescence microscopy, we analyzed the Δψm in VCR (vincristin) treated HL60 cells. In healthy cells, the dye accumulates and aggregates in mitochondria, where it fluoresces bright red. In apoptotic cells, however, it cannot enter mitochondria if the Δψm is altered and fluoresces bright green as a cytoplasmic monomer. Therefore, mitochondria depolarization is indicated by a decrease of the red/green fluorescence intensity ratio.

HeLa cells = assay: Lactic acid production in culture medium; settings: treated for 3 days vs not treated
Description: Mitochondria are well known for their essential role in cell respiration and apoptosis. Cancer cells are known to have altered mitochondrial respiration, where pyruvate is catabolized in the lactic acid fermentation pathway instead of being used in the Krebbs cycle in the mitochondria, which produces energy far more efficiently. […] Culture medium was tested for lactic acid levels.

MCF7 = assay: Wound healing assay, breast cancer cells; settings: treated vs not treated
Description: FIG. 12B is a wound healing assay as depicted in FIG. 12A performed on breast cancer cells.
(§1) This was performed by growing the cells to confluence and forming a “wound” by scoring the culture with a pipette tip. The cells were then treated with P1-TAT and assessed for their ability to close the gap between the two artificially created cell populations.

H520 cells = assay: Wound healing assay, lung cancer cells; settings: treated vs not treated, 5 days
Description: FIG. 12A is a photographic representation of a wound healing assay performed on lung cancer cell lines. The H520 cells were treated (or not treated) with the FLJP1-TAT and motility of cells was monitored through a light microscope to analyze closing of the created gap.
as §1

CD24 protein expression = CD24 protein expression by immunofluorescence; settings: OM9;22 ALL cell line, 48 hours of treatment
Source text: (§2) The same results were obtained using the OVCAR3 ovarian cancer cell line (not shown).

CD24 expression = CD24 expression by RT-PCR in leukemia cell lines incubated with P1-TAT
Description: Reverse transcription was done in 20 μl containing a minimum of 1.25 μg of total RNA, 1 μl of 10 mM of deoxynucleotide triphosphate (NEB, Ipswitch, Mass.), 1 μl of 0.5 μg/μl oligo (dT) 18 (IDT, Coralville, Iowa), 1 μl of 40 U/μl ribonuclease inhibitor (Fermentas, Hanover, Md.), 2 μl of 10×reaction buffer (NEB), and 0.25 μl of 200 U/μl MMLV reverse transcriptase (NEB). After incubation with 1 μl of 5U μl RNase H (NEB) for 20 minutes, multiplex PCR reaction was carried out, allowing for simultaneous detection of CD24 and FLJ13639 expression levels. The primers are: CD 24 (resulting in an amplification product of 300 pb) forward: 5′[…]3′ (SEQ ID NO:12), reverse: 5′[…]3′ (SEQ ID NO:13). The primers for FLJ13639 P1 (resulting in an amplification product of 233 pb) are the same as those described in Example 1. The reactions were of an initial denaturation at 95° C. for 10 minutes, followed by 35 cycles: denaturation, 50 seconds at 95° C., annealing 50 seconds at 54° C. and extension 60 seconds at 75° C. Actin amplification was performed as an internal control, according to the following protocol: 15 seconds at 95° C., 30 seconds at 60° C. and 60 seconds at 75° C.
After 48 hours of incubation, cells were harvested, RNA was extracted and cDNA was used for CD24 expression assessment by RT-PCR.
as §2

UoCB1 cells = assay: Matrigel invasion assay; settings: 20 μg of P1-TAT for 48 h, treatment versus no treatment
Source text: To perform the Matrigel invasion assay, cells were deposited on top of a matrigel well and chemoattractant (fetal bovine serum) solutions were positioned below the matrigel matrix. Only cells with an invasive potential will “travel” toward the chemoattractant solutions through the matrigel.

CC[C@]1(O)C[C@H]2CN(CCc3c([nH]c4ccccc34)[C@@](C(=O)OC)(c3cc4c(cc3OC)N(C=O)[C@H]3[C@@](O)(C(=O)OC)[C@H](OC(C)=O)[C@]5(CC)C=CCN6CC[C@]43[C@@H]65)C2)C1 [Vincristin, vincristin]
cytotoxicity at 1 µM ([1]; HL60/VCR, Vincristin 1 μM, read-out: reduction of cell viability): 90% | effect on cell viability ([1]; Vincristin 0.1 μM): almost no effect | green/red fluorescence ratio (HL60 cells; 0.1 ug of VCR alone): low green/red fluorescence ratio | green/red fluorescence ratio (HL60 cells; 1 ug of VCR alone, p<0.01): significant increase

B1: P1-TAT: recombinant FLJ13639/P1 protein in frame with HIV TAT protein transduction domain and 6×Histidine tag; amino acid sequence SEQ ID NO:5 (protein)
chain: MRGSHHHHHHGMASMTGGQQMGRDLYDDDDKDRWGSKLGYGRKKRRQRRRGGSTMSGYPYDVPDYAGSMAGTGLESLYRSVVWFAKGLREYTKSGYESACKDFVPHDLEVQIPGRVFLVTGGNSGIGKATALEIAKRGGTVHLVCRDQAPAEDARGEIIRESGNQNIFLHIVDLSDPKQIWKFVENFKQEHKLHVLINNAGCMVNKRELTEDGLEKNFAANTLGVYILTTGLIPVLEKEHDPRVITVSSGGMLVQKLNTNDLQSERTPFDGTMVYAQNKRQQVVLTERWAQGHPAIHFSSMHPGWADTPGVRQAMPGFHARFGDRLRSEAQGADTMLWLALSSAAAAQPSGRFFQDRKPVSTHLPLATASSSPAEEEKLIEILEQLAQTFK
level of lactic acid in culture medium (HeLa cells): significantly lower level | motility / closing of the gap (MCF7): significantly reduced the motility | motility / closing of the gap (H520 cells): significantly reduced the motility | motility / closing of the gap (H520 cells; listed as FLJ13639P1-TAT): inhibited filling of the gap | CD24 protein expression (CD24 protein expression): down-regulated | CD24 expression (CD24 expression; OM9:22, ALL-1, K562, 207 cell lines, 20 μg of P1-TAT (data not shown)): marked CD24 down-regulation | CD24 expression levels (CD24 expression; UoCB1 cell line, increasing amount of P1-TAT, 48 hours, RT-PCR): inversely proportional | CD24 levels, time-course (CD24 expression; UoCB1 cells, 20 μg of P1-TAT, six hours after incubation): significantly downregulated | decrease of invasion potential (UoCB1 cells): 2.4 fold
